Results: publication PMC12809912 (2025)
Ends that are not written are not given here. * marks the point of attachment. Biotin = O=C1N[C@H]2[C@H](CS[C@H]2CCCCC(=O)*)N1

T1: biotinylated DEFA5 epitope peptide Biotin-RATCYCRTGRCAT (human, cysteine pairing not given here)
T1 peptide: Biotin-RATCYCRTGRCAT


Biological target: T1, biotinylated DEFA5 epitope peptide …
Experiment: SPR

koff | Binder
0.00261 s⁻¹ | mouse monoclonal antibody clone 4F5 (anti-DEFA5) (antibody, V domains shown, Fc glycosylation, G1F lower and afucosylated G0 ~15 % (intact ESI-MS)) VH: QVQLQQSGAELVRPGASVKMSCKALGYTFFDYEMHWMKQTPVYGLEWIGAIHPGSGDTAYNQKFKGKATLTADKSSNTAYMELSSLTSEDSAVYYCTREGTVVAPFDYWGQGTTLTVSS VL: DVLMTQTPLSLPVSLGDQASISCRSSQSIVHSNGNTYLEWYLQKPGQSPKLLINKVSNRFSGVPDRFSGSGSGTDFTLKISRVEAEDLGVYYCFQGSYVPYTFGGGTKLEIK
0.00253 s⁻¹ | mouse monoclonal antibody clone 1A8 (anti-DEFA5) (antibody, V domains shown, Fc glycosylation, mainly the G1F glycoform (intact ESI-MS)) VH: QVQLQQSGAELVRPGASVKMSCKALGYTFFDYEMHWMKQTPVYGLEWIGAIHPGSGDTAYNQKFKGKATLTADKSSNTAYMELSSLTSEDSAVYYCTREGTVVAPFDYWGQGTTLTVSS VL: DVLMTQTPLSLPVSLGDQASISCRSSQSIVHSNGNTYLEWYLQKPGQSPKLLINKVSNRFSGVPDRFSGSGSGTDFTLKISRVEAEDLGVYYCFQGSYVPYTFGGGTKLEIK
